B1: 30436 (WT PD-1: HA PD-L1 masked CD3 × Her2 Fab × scFv Fc, PD-1 cleavable), not treated with uPa (bispecific antibody)
heavy: not shown
light: AFTVTVPKDLYVVEYGSNMTIECKFPVEKQLDLAALQVFWMMEDKNIIQFVHGEEDLKVQHSSYRQRARLLKDQLSLGNAALQITDVKLQDAGVYTCLIAYKGADYKRITVKVNAEAAAKEAAAKDIQMTQSPSSLSASVGDRVTMTCSASSSVSYMNWYQQKPGKAPKRWIYDSSKLASGVPARFSGSGSGTDYTLTISSLQPEDFATYYCQQWSRNPPTFGGGTKLQITRTVAAPSVFIFPPSDEQLKSGTASVVCLLNNFYPREAKVQWKVDNALQSGNSQESVTEQDSKDSTYSLSSTLTLSKADYEKHKVYACEVTHQGLSSPVTKSFNRGEC
chain: not shown
B2: 30436 treated with uPa (bispecific antibody)
heavy: not shown
light: B1 light
chain: not shown
B3: 31931 (Half-masked CD3 × Her2 Fab × scFv Fc, HA PD-L1 attached to LC) (bispecific antibody)
heavy: not shown
light: B1 light
chain: not shown
B4: 31929 (Half-masked CD3 × Her2 Fab × scFv Fc, HA PD-1 attached to HC) (bispecific antibody)
heavy: not shown
light: DIQMTQSPSSLSASVGDRVTMTCSASSSVSYMNWYQQKPGKAPKRWIYDSSKLASGVPARFSGSGSGTDYTLTISSLQPEDFATYYCQQWSRNPPTFGGGTKLQITRTVAAPSVFIFPPSDEQLKSGTASVVCLLNNFYPREAKVQWKVDNALQSGNSQESVTEQDSKDSTYSLSSTLTLSKADYEKHKVYACEVTHQGLSSPVTKSFNRGEC
chain: not shown
B5: 30421 (CD3 × Her2 Fab × scFv Fc without mask) (bispecific antibody)
heavy: not shown
light: B4 light
chain: not shown

Experiments:
CD3 on Jurkat cells [1] = target: CD3 on Jurkat cells (human); experiment: cell ELISA; -uPa
CD3 on Jurkat cells [2] = target: CD3 on Jurkat cells (human); experiment: cell ELISA; +uPa
CD3 on Jurkat cells [3] = target: CD3 on Jurkat cells (human); experiment: cell ELISA

CD3 on Jurkat cells (human), sequence (chain, as listed by the source, chain 1 of 4): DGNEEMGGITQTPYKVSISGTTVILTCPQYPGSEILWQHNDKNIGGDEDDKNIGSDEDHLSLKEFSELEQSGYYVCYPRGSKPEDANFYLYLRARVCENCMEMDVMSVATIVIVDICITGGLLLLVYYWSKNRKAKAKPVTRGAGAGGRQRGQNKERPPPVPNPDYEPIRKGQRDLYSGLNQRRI
CD3 on Jurkat cells (human), sequence (chain, as listed by the source, chain 2 of 4): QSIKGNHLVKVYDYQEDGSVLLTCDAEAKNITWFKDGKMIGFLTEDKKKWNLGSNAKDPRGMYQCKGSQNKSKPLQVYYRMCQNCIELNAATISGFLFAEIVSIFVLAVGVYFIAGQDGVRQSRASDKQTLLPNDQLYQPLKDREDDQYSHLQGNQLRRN
CD3 on Jurkat cells (human), sequence (chain, as listed by the source, chain 3 of 4): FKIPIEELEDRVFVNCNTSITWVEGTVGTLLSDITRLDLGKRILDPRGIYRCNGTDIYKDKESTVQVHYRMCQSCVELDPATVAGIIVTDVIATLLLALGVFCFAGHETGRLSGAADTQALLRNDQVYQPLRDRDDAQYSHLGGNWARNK
CD3 on Jurkat cells (human), sequence (chain, as listed by the source, chain 4 of 4): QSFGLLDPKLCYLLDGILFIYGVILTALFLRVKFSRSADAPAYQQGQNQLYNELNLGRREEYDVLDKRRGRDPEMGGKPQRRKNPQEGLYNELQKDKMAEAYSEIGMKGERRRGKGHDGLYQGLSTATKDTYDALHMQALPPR

| Binder | EC50 (CD3 on Jurkat cells [3]) | other results |
| --- | --- | --- |
| B1 |  | EC50 (CD3 on Jurkat cells [1]): 178 nM |
| B2 |  | EC50 (CD3 on Jurkat cells [2]): 6.22 nM |
| B3 | 5.33 nM |  |
| B4 | 4.2 nM |  |
| B5 | 1.22 nM |  |

Source: patent US20230122079A1 (published 2023)
